Measurements published in the supplement of paper PMC9112550, “Optimization of the antimicrobial peptide Bac7 by deep mutational scanning” (BMC Biology, 2022).

The sequences below were run on Escherichia coli TOP10 (assay: shrunken log2 fold change of peptide-encoding DNA abundance (4.5 h post-induction vs induction); higher = less antimicrobial activity (less host growth inhibition)). Settings: time post-induction: 4.5 h; library: site-saturation at positions 5, 18, 19, 20.
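Note: peptides expressed intracellularly from a pBAD plasmid library in pooled LB shake-flask culture, induced with 0.3% L-arabinose, DNA abundance read by NGS, three biological replicates, DESeq2 with apeglm shrinkage.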

Row | Sequence | shrunken log2 fold change
1 | RRIRMRPPRLPRPRPRPIWAPRP | 0.114
2 | RRIRVRPPRLPRPRPRPCGKPRP | -0.15
3 | RRIRHRPPRLPRPRPRPPCVPRP | -0.108
4 | RRIRIRPPRLPRPRPRPNGEPRP | -0.0757
5 | RRIRDRPPRLPRPRPRPHYLPRP | -0.159
6 | RRIRVRPPRLPRPRPRPLHMPRP | -0.17
7 | RRIRDRPPRLPRPRPRPWVWPRP | 0.702
8 | RRIRWRPPRLPRPRPRPLPTPRP | 0.463
9 | RRIRKRPPRLPRPRPRPGSQPRP | 0.359
10 | RRIRPRPPRLPRPRPRPEDHPRP | -0.131
11 | RRIRPRPPRLPRPRPRPSHTPRP | -0.0343
12 | RRIRVRPPRLPRPRPRPPSSPRP | 0.275
13 | RRIRPRPPRLPRPRPRPMAGPRP | -0.13
14 | RRIRKRPPRLPRPRPRPDQMPRP | -0.0646
15 | RRIRMRPPRLPRPRPRPFFKPRP | -0.116
16 | RRIRQRPPRLPRPRPRPKCKPRP | 0.0386
17 | RRIRIRPPRLPRPRPRPQQSPRP | -0.113
18 | RRIRQRPPRLPRPRPRPTLCPRP | 0.00185
19 | RRIRFRPPRLPRPRPRPFHTPRP | -0.561
20 | RRIRHRPPRLPRPRPRPEGDPRP | 0.383

Row | Sequence | shrunken log2 fold change
21 | RRIRMRPPRLPRPRPRPCYFPRP | -0.289
22 | RRIRQRPPRLPRPRPRPTVMPRP | 0.0964
23 | RRIRRRPPRLPRPRPRPPVSPRP | 0.332
24 | RRIRWRPPRLPRPRPRPLPPPRP | 0.686
25 | RRIRDRPPRLPRPRPRPYSVPRP | -0.0716
26 | RRIRPRPPRLPRPRPRPGMRPRP | 0.852
27 | RRIRCRPPRLPRPRPRPATIPRP | -0.55
28 | RRIRSRPPRLPRPRPRPNVTPRP | -0.0212
29 | RRIRSRPPRLPRPRPRPMWSPRP | 0.284
30 | RRIRRRPPRLPRPRPRPIRVPRP | 0.244
31 | RRIRIRPPRLPRPRPRPLRPPRP | 0.583
32 | RRIRQRPPRLPRPRPRPGQDPRP | 0.102
33 | RRIRIRPPRLPRPRPRPFWTPRP | -0.353
34 | RRIRNRPPRLPRPRPRPYWEPRP | -0.293
35 | RRIRWRPPRLPRPRPRPVFIPRP | -0.22
36 | RRIRERPPRLPRPRPRPVMKPRP | -0.236
37 | RRIRERPPRLPRPRPRPMRMPRP | -0.0542
38 | RRIRLRPPRLPRPRPRPEGLPRP | 0.206
39 | RRIRMRPPRLPRPRPRPCCMPRP | -0.167
40 | RRIRYRPPRLPRPRPRPVTLPRP | -0.713

Row | Sequence | shrunken log2 fold change
41 | RRIRQRPPRLPRPRPRPLVPPRP | 0.253
42 | RRIRCRPPRLPRPRPRPLSIPRP | -0.917
43 | RRIRVRPPRLPRPRPRPCPGPRP | 0.00413
44 | RRIRGRPPRLPRPRPRPDHAPRP | 0.217
45 | RRIRRRPPRLPRPRPRPAMIPRP | 0.0243
46 | RRIRFRPPRLPRPRPRPHALPRP | -0.222
47 | RRIRCRPPRLPRPRPRPWEVPRP | 0.431
48 | RRIRARPPRLPRPRPRPFMNPRP | -0.0629
49 | RRIRYRPPRLPRPRPRPNFDPRP | -0.565
50 | RRIRARPPRLPRPRPRPIFPPRP | 0.32
51 | RRIRTRPPRLPRPRPRPNTWPRP | -0.178
52 | RRIRWRPPRLPRPRPRPDAHPRP | 0.0254
53 | RRIRYRPPRLPRPRPRPHPMPRP | -0.191
54 | RRIRMRPPRLPRPRPRPRYRPRP | 0.307
55 | RRIRQRPPRLPRPRPRPRDNPRP | -0.0667
56 | RRIRYRPPRLPRPRPRPKKPPRP | 0.00704
57 | RRIRNRPPRLPRPRPRPDSTPRP | -0.028
58 | RRIRCRPPRLPRPRPRPSRHPRP | -0.33
59 | RRIRARPPRLPRPRPRPHTMPRP | -0.0952
60 | RRIRQRPPRLPRPRPRPDPEPRP | -0.202
